Test results taken from the supplement of paper PMC10065799, “High-throughput profiling of sequence recognition by tyrosine kinases and SH2 domains using bacterial peptide display” (eLife, 2023).

Tests used:
Fyn = Fyn (UniProt P06241); assay: phosphorylation enrichment, bacterial display (enrichment ratio); higher = better substrate or ligand; peptides without Tyr show the background
EPHB2 = EPHB2 (UniProt P29323); assay: as above
Jak2 = Jak2 (UniProt O60674); assay: as above
c-Abl (mouse) = assay: as above
Fer (mouse) = assay: as above
MERTK = MERTK (UniProt Q12866); assay: as above
Chain of MERTK (Q12866 whole entry, looked up): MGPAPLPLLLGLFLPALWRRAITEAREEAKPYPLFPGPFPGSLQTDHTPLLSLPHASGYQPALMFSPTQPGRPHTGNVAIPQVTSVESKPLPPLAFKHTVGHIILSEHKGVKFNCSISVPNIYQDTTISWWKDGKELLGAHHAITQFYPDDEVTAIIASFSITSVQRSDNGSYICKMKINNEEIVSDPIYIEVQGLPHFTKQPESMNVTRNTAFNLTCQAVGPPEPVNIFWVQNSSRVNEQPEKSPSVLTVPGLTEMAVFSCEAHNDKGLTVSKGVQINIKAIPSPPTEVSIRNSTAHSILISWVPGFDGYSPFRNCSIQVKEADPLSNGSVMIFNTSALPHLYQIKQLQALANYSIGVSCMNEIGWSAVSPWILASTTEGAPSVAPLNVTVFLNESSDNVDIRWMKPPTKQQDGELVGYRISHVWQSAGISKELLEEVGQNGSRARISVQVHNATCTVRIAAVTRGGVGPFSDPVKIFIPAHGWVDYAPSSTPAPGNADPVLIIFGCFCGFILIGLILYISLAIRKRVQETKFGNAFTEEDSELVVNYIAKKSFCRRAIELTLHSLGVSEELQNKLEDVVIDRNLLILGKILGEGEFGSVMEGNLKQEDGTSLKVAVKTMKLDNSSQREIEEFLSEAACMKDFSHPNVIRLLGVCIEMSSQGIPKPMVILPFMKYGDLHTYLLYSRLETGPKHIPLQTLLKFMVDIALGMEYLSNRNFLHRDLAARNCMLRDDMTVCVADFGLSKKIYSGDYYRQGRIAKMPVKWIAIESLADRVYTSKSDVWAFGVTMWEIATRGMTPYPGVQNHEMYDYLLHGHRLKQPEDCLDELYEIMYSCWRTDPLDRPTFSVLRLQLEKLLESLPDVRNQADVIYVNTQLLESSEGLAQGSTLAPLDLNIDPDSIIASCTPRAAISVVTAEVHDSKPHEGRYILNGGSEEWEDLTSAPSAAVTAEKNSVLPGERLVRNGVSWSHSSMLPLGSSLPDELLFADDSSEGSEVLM

FGFR1 = FGFR1 (UniProt P11362); assay: as above
Chain of FGFR1 (P11362 whole entry, looked up): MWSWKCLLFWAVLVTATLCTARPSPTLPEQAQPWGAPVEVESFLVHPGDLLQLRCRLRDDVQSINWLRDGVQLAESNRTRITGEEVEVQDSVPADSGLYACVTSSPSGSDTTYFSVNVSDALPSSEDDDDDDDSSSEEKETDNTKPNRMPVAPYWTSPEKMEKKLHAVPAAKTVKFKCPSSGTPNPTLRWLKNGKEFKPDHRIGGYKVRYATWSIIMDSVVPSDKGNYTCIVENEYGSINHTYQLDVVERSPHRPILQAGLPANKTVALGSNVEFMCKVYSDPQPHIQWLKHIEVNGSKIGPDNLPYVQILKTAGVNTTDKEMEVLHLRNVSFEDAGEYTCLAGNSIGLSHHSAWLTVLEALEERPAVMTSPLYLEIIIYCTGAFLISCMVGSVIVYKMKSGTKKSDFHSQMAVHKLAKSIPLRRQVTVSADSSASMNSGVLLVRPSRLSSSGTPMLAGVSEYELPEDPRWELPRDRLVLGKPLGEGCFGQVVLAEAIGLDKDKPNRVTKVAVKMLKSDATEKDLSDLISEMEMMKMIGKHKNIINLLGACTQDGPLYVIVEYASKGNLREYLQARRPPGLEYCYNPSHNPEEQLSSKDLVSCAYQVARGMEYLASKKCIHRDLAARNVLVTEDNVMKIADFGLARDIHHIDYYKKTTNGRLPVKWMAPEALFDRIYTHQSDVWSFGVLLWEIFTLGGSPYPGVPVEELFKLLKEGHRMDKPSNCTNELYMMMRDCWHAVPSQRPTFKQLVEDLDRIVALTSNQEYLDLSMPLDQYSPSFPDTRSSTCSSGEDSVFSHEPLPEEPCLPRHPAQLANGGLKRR

AncSZ = assay: as above
Hck = Hck (UniProt P08631); assay: as above
Chain of Hck (P08631 whole entry, looked up): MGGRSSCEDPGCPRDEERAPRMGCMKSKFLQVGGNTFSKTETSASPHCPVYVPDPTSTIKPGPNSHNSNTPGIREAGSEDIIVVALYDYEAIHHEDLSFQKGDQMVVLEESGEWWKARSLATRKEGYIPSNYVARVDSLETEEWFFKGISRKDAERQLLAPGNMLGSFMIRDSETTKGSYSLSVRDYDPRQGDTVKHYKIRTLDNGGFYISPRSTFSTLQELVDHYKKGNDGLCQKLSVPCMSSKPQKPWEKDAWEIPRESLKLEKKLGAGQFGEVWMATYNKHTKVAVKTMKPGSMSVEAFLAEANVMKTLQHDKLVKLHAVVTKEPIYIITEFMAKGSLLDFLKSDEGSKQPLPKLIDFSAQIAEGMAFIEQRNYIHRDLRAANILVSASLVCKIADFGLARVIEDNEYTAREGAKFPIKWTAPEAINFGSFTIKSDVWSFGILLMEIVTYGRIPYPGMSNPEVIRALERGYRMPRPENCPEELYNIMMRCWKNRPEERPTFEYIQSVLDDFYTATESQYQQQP

Fes = Fes (UniProt P07332); assay: as above
Chain of Fes (P07332 whole entry, looked up): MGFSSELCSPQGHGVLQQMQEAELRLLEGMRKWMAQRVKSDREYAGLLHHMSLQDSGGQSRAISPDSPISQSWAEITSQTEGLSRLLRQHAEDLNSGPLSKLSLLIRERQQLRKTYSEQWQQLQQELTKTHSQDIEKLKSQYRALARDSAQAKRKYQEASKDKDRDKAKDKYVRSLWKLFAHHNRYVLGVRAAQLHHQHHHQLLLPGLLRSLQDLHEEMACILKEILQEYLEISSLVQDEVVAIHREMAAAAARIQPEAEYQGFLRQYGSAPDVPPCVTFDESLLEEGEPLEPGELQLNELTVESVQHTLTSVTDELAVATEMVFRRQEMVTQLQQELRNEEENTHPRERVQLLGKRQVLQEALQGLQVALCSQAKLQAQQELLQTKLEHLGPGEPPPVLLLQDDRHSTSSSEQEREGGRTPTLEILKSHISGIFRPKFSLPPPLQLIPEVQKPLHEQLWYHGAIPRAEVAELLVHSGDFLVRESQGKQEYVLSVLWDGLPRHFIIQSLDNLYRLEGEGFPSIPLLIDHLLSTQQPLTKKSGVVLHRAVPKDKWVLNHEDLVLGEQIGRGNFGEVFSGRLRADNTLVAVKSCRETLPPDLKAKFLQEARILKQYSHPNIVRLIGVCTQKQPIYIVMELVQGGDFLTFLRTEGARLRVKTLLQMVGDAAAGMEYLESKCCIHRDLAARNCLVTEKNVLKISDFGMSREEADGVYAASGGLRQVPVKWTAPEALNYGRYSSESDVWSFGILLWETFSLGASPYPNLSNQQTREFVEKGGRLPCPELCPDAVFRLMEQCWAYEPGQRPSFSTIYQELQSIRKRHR

EPHB1 = EPHB1 (UniProt P54762); assay: as above
Chain of EPHB1 (P54762 whole entry, looked up): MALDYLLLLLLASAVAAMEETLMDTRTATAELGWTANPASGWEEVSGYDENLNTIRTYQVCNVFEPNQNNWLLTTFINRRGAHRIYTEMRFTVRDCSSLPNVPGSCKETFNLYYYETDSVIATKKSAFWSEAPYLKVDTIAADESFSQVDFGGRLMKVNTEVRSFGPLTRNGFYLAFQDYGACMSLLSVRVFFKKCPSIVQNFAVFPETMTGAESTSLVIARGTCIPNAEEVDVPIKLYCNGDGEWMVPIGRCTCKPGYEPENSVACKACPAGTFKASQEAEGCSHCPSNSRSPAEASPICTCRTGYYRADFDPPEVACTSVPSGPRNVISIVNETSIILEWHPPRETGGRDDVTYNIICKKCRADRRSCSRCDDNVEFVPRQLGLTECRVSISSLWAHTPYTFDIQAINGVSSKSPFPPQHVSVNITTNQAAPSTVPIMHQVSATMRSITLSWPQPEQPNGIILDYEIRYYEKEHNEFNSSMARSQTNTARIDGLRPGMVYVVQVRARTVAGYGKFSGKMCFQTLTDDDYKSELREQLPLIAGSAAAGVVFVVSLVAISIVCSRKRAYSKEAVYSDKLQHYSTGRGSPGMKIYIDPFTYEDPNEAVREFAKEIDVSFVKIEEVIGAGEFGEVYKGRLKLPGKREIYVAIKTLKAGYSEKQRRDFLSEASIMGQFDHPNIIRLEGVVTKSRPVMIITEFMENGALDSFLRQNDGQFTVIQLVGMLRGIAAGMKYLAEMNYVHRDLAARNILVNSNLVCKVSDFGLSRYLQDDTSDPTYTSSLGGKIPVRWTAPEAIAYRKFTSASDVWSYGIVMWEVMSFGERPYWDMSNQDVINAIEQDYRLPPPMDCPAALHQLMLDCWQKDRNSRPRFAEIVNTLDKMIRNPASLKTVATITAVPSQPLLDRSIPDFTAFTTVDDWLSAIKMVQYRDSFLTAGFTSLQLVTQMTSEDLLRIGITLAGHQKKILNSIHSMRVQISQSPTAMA

FGFR3 = FGFR3 (UniProt P22607); assay: as above
c-Src = assay: as above
SHP2-C SH2 = assay: SH2 binding enrichment of the phosphorylated peptide, bacterial display (enrichment ratio); higher = better substrate or ligand; peptides without Tyr show the background
c-Src SH2 = assay: as above
Grb2 SH2 = Grb2 SH2 (UniProt P62993); assay: as above
Chain of Grb2 SH2 (P62993 whole entry, looked up, the tested form may be a part): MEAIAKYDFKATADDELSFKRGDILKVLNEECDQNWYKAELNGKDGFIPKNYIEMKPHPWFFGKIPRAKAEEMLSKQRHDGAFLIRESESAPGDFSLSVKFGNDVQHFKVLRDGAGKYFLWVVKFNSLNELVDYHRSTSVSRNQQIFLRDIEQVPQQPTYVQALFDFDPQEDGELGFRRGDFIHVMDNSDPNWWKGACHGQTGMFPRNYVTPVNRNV
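Wherever SH2 binding enrichment of the phosphorylated peptide, bacterial display is given: peptide library displayed on the E. coli surface as eCPX fusions, selected cells deep-sequenced, score is each peptide's frequency after selection divided by its frequency in the input.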
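Wherever phosphorylation enrichment, bacterial display is given: 11-residue human phosphosite peptides and single-mutation variants displayed on the E. coli surface, counted by deep sequencing, each peptide's frequency after selection divided by its frequency in the unselected input library; frequency after pTyr selection over input frequency; kinase dosed for 20-30% of maximal phosphorylation in three min.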

Chain of Fyn (P06241 whole entry, looked up): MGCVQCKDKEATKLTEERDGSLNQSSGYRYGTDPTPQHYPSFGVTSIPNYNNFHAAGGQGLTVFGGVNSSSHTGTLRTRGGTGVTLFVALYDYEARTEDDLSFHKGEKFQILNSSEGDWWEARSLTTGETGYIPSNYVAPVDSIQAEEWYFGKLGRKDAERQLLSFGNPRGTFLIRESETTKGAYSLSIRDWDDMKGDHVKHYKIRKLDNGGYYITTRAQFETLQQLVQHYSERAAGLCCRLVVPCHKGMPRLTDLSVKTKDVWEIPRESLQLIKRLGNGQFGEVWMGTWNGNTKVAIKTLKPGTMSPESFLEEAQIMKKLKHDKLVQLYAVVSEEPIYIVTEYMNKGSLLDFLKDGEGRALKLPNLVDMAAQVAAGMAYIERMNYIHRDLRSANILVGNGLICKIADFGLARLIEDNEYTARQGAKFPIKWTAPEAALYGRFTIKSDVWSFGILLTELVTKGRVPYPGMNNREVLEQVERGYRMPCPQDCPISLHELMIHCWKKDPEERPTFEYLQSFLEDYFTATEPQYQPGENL

With MANYMYKAGPS [MAML2_Y515] the phosphorylation enrichment (Fyn) was 0.508, the phosphorylation enrichment (EPHB2) was 0.963 and the phosphorylation enrichment (Jak2) was 0.497. It also gave a phosphorylation enrichment (c-Abl (mouse)) of 1.04, a phosphorylation enrichment (Fer (mouse)) of 0.358 and a phosphorylation enrichment (MERTK) of 0.584. For the same sequence, the phosphorylation enrichment (FGFR1) was 0.465, the phosphorylation enrichment (AncSZ) was 0.636 and the phosphorylation enrichment (Hck) was 0.51. For the same sequence, the phosphorylation enrichment (Fes) was 0.616, the phosphorylation enrichment (EPHB1) was 1.32 and the phosphorylation enrichment (FGFR3) was 0.496. It also gave a phosphorylation enrichment (c-Src) of 0.556, an SH2 binding enrichment (SHP2-C SH2) of 0.787 and an SH2 binding enrichment (c-Src SH2) of 0.485. For the same sequence, the SH2 binding enrichment (Grb2 SH2) was 0.887.

For RAIGYYSATSK [FAM120A_Y328], the phosphorylation enrichment (Fyn) was 0.502, the phosphorylation enrichment (EPHB2) was 0.515 and the phosphorylation enrichment (Jak2) was 0.73. It also gave a phosphorylation enrichment (c-Abl (mouse)) of 0.639, a phosphorylation enrichment (Fer (mouse)) of 0.563 and a phosphorylation enrichment (MERTK) of 1.17. For the same sequence, the phosphorylation enrichment (FGFR1) was 0.438, the phosphorylation enrichment (AncSZ) was 0.765 and the phosphorylation enrichment (Hck) was 0.37. For the same sequence, the phosphorylation enrichment (Fes) was 0.631, the phosphorylation enrichment (EPHB1) was 0.622 and the phosphorylation enrichment (FGFR3) was 0.453. The phosphorylation enrichment (c-Src) was 0.593, the SH2 binding enrichment (SHP2-C SH2) was 1.16 and the SH2 binding enrichment (c-Src SH2) was 1.83. It also gave an SH2 binding enrichment (Grb2 SH2) of 1.24.

RIDPDYMGRVR [IGSF9_Y81_V82M] was tested, and the phosphorylation enrichment (Fyn) was 0.487, the phosphorylation enrichment (EPHB2) was 0.367 and the phosphorylation enrichment (Jak2) was 0.643. The phosphorylation enrichment (c-Abl (mouse)) was 0.585, the phosphorylation enrichment (Fer (mouse)) was 0.4 and the phosphorylation enrichment (MERTK) was 0.442. For the same sequence, the phosphorylation enrichment (FGFR1) was 0.344, the phosphorylation enrichment (AncSZ) was 0.649 and the phosphorylation enrichment (Hck) was 0.369. It also gave a phosphorylation enrichment (Fes) of 0.572, a phosphorylation enrichment (EPHB1) of 0.35 and a phosphorylation enrichment (FGFR3) of 0.656. It also gave a phosphorylation enrichment (c-Src) of 0.466, an SH2 binding enrichment (SHP2-C SH2) of 0.629 and an SH2 binding enrichment (c-Src SH2) of 0.577. It also gave an SH2 binding enrichment (Grb2 SH2) of 1.03.

For APVEDYGGGGG [B4GALT6_Y382_I379V], the phosphorylation enrichment (Fyn) was 0.496, the phosphorylation enrichment (EPHB2) was 0.552 and the phosphorylation enrichment (Jak2) was 0.62. The phosphorylation enrichment (c-Abl (mouse)) was 0.481, the phosphorylation enrichment (Fer (mouse)) was 0.409 and the phosphorylation enrichment (MERTK) was 0.418. It also gave a phosphorylation enrichment (FGFR1) of 0.473, a phosphorylation enrichment (AncSZ) of 0.822 and a phosphorylation enrichment (Hck) of 0.452. The phosphorylation enrichment (Fes) was 0.882, the phosphorylation enrichment (EPHB1) was 0.503 and the phosphorylation enrichment (FGFR3) was 0.641. The phosphorylation enrichment (c-Src) was 0.392, the SH2 binding enrichment (SHP2-C SH2) was 0.768 and the SH2 binding enrichment (c-Src SH2) was 0.425. For the same sequence, the SH2 binding enrichment (Grb2 SH2) was 0.764.

Work on EDDIIYTQDFM [STK11_Y362_T367M] yielded a phosphorylation enrichment (Fyn) of 1.03, a phosphorylation enrichment (EPHB2) of 0.746 and a phosphorylation enrichment (Jak2) of 1.21. For the same sequence, the phosphorylation enrichment (c-Abl (mouse)) was 0.889, the phosphorylation enrichment (Fer (mouse)) was 0.776 and the phosphorylation enrichment (MERTK) was 0.784. The phosphorylation enrichment (FGFR1) was 0.911, the phosphorylation enrichment (AncSZ) was 1.49 and the phosphorylation enrichment (Hck) was 0.992. For the same sequence, the phosphorylation enrichment (Fes) was 1.31, the phosphorylation enrichment (EPHB1) was 0.697 and the phosphorylation enrichment (FGFR3) was 1.25. For the same sequence, the phosphorylation enrichment (c-Src) was 1.1, the SH2 binding enrichment (SHP2-C SH2) was 0.65 and the SH2 binding enrichment (c-Src SH2) was 0.466. The SH2 binding enrichment (Grb2 SH2) was 0.984.

EAIAKYDLKAT [GRB2_Y7_F9L] gave a phosphorylation enrichment (Fyn) of 0.408, a phosphorylation enrichment (EPHB2) of 0.464 and a phosphorylation enrichment (Jak2) of 0.851. For the same sequence, the phosphorylation enrichment (c-Abl (mouse)) was 0.617, the phosphorylation enrichment (Fer (mouse)) was 0.443 and the phosphorylation enrichment (MERTK) was 0.412. For the same sequence, the phosphorylation enrichment (FGFR1) was 0.466, the phosphorylation enrichment (AncSZ) was 0.809 and the phosphorylation enrichment (Hck) was 0.458. It also gave a phosphorylation enrichment (Fes) of 0.713, a phosphorylation enrichment (EPHB1) of 0.489 and a phosphorylation enrichment (FGFR3) of 0.634. It also gave a phosphorylation enrichment (c-Src) of 0.438, an SH2 binding enrichment (SHP2-C SH2) of 0.741 and an SH2 binding enrichment (c-Src SH2) of 0.478. For the same sequence, the SH2 binding enrichment (Grb2 SH2) was 0.874.

For TVHPGYGFLSE [PCCA_Y143_A138T], the phosphorylation enrichment (Fyn) was 0.384, the phosphorylation enrichment (EPHB2) was 0.467 and the phosphorylation enrichment (Jak2) was 0.676. It also gave a phosphorylation enrichment (c-Abl (mouse)) of 0.529, a phosphorylation enrichment (Fer (mouse)) of 0.425 and a phosphorylation enrichment (MERTK) of 0.396. It also gave a phosphorylation enrichment (FGFR1) of 0.393, a phosphorylation enrichment (AncSZ) of 0.717 and a phosphorylation enrichment (Hck) of 0.488. For the same sequence, the phosphorylation enrichment (Fes) was 0.747, the phosphorylation enrichment (EPHB1) was 0.455 and the phosphorylation enrichment (FGFR3) was 0.478. It also gave a phosphorylation enrichment (c-Src) of 0.566, an SH2 binding enrichment (SHP2-C SH2) of 0.962 and an SH2 binding enrichment (c-Src SH2) of 0.433. It also gave an SH2 binding enrichment (Grb2 SH2) of 0.941.

HNQDGYSFPSR [LDLR_Y845_YF] showed a phosphorylation enrichment (Fyn) of 0.996, a phosphorylation enrichment (EPHB2) of 0.939 and a phosphorylation enrichment (Jak2) of 1.55. It also gave a phosphorylation enrichment (c-Abl (mouse)) of 1.31, a phosphorylation enrichment (Fer (mouse)) of 0.871 and a phosphorylation enrichment (MERTK) of 1.15. The phosphorylation enrichment (FGFR1) was 0.906, the phosphorylation enrichment (AncSZ) was 1.94 and the phosphorylation enrichment (Hck) was 0.748. It also gave a phosphorylation enrichment (Fes) of 1.45, a phosphorylation enrichment (EPHB1) of 0.762 and a phosphorylation enrichment (FGFR3) of 1.08. For the same sequence, the phosphorylation enrichment (c-Src) was 1.02, the SH2 binding enrichment (SHP2-C SH2) was 0.76 and the SH2 binding enrichment (c-Src SH2) was 4.23. It also gave an SH2 binding enrichment (Grb2 SH2) of 1.06.

In the case of KIKGRYEKCEP [KRT26_Y119_W118R], the phosphorylation enrichment (Fyn) is reported as 0.412, the phosphorylation enrichment (EPHB2) is reported as 0.526 and the phosphorylation enrichment (Jak2) is reported as 1.37. For the same sequence, the phosphorylation enrichment (c-Abl (mouse)) was 1.25, the phosphorylation enrichment (Fer (mouse)) was 0.584 and the phosphorylation enrichment (MERTK) was 0.478. For the same sequence, the phosphorylation enrichment (FGFR1) was 0.562, the phosphorylation enrichment (AncSZ) was 0.808 and the phosphorylation enrichment (Hck) was 0.546. The phosphorylation enrichment (Fes) was 1.13, the phosphorylation enrichment (EPHB1) was 0.614 and the phosphorylation enrichment (FGFR3) was 1.17. It also gave a phosphorylation enrichment (c-Src) of 0.579, an SH2 binding enrichment (SHP2-C SH2) of 1.9 and an SH2 binding enrichment (c-Src SH2) of 1.81. For the same sequence, the SH2 binding enrichment (Grb2 SH2) was 1.67.
